The results in this text go back to the Immune Epitope Database (IEDB).

One assay has as its target HLA-B*39:01. Kind of assay: IEDB peptide-MHC binding, purified MHC/competitive/fluorescence; filed as Kd, often an IC50 or EC50 that approximates it; ≥ and ≤ were set here for values at or beyond the usual limits of such assays.
The target of assay [1] is HLA-A*02:01. The description is as above.
A further assay deals with HLA-A*02:16. The description is as above.
For the next assay, the target named is HLA-A*02:03. The assay is described as above.
Assay [2] has as its target HLA-A*68:02. The description is as above.
In assay [3] the target is HLA-A*03:01. The assay is described as above.
A further assay addresses HLA-B*51:01. The description is as above.
The next assay concerns the target HLA-A*02:11. The assay is described as above.
Assay [4] has as its target HLA-B*46:01. Described as above.
The next assay concerns the target HLA-B*18:01. The description is as above.
Another assay has as its target HLA-A*29:02. Described as above.
The target in assay [5] is HLA-B*15:01. The description is as above.
A further assay addresses HLA-B*27:03. The assay is described as above.
Another assay addresses HLA-A*02:12. The assay is described as above.
Assay [6] concerns the target HLA-B*57:01. The assay is described as above.
For another assay, the target named is HLA-A*02:19. The description is as above.
The target of assay [7] is HLA-A*69:01. Described as above.
Another assay has as its target HLA-A*26:01. The assay is described as above.
A further assay deals with HLA-A*23:01. Described as above.
The target in another assay is HLA-A*24:03. Described as above.
In assay [8] the target is HLA-B*15:17. The description is as above. As to conditions: source organism: Cryptosporidium parvum Iowa II.
Another assay has as its target HLA-B*07:02. The assay can be described thus: IEDB peptide-MHC binding, purified MHC/direct/fluorescence; filed as Kd, often an IC50 or EC50 that approximates it; ≥ and ≤ were set here for values at or beyond the usual limits of such assays.
Assay [9] has as its target HLA-B*46:01. The description is as above.
For assay [10], the target named is HLA-B*15:01. The assay is described as above.
The next assay addresses HLA-B*15:02. The assay is described as above.
The next assay concerns the target HLA-B*35:01. The description is as above. To be noted: source organism: Escherichia coli O157:H7 str. EC869.
For a further assay, the target named is HLA-A*26:02. The description is as above. As to conditions: source organism: Brucella suis 1330.
A further assay concerns the target HLA-A*31:01. The description is as above. As to conditions: source organism: Brucella abortus.
The target of assay [11] is HLA-A*69:01. Described as above. As to conditions: source organism: Brucella abortus.
The target in the next assay is HLA-B*15:09. Described as above. As to conditions: source organism: Brucella suis 1330.
The target of assay [12] is HLA-A*02:01. The description is as above. As to conditions: source organism: Brucella abortus.
Another assay has as its target HLA-A*01:01. The description is as above. To be noted: source organism: Brucella abortus.
Another assay has as its target HLA-B*58:01. The description is as above. As to conditions: source organism: Brucella abortus.
The target of the next assay is HLA-B*48:01. The assay is described as above. As to conditions: source organism: Brucella abortus.
In assay [13] the target is HLA-A*68:02. Described as above. As to conditions: source organism: Brucella abortus.
Assay [14] addresses HLA-A*03:01. The assay is described as above. As to conditions: source organism: Brucella abortus.
The target of a further assay is HLA-A*11:01. Described as above. To be noted: source organism: Brucella abortus.
Another assay addresses HLA-B*08:02. The assay is described as above. As to conditions: source organism: Brucella suis 1330.
In the next assay the target is HLA-B*27:05. The description is as above. To be noted: source organism: Brucella abortus.
The target in assay [15] is HLA-B*57:01. The assay is described as above. To be noted: source organism: Brucella abortus.
Assay [16] addresses HLA-B*15:17. Described as above. To be noted: source organism: Brucella abortus.
Setting [17] is: source organism: Giardia lamblia ATCC 50803.
The mark [18] stands for this setting: source organism: Cryptosporidium parvum Iowa II.
[19] abbreviates: source organism: Escherichia coli O157:H7 str. EC869.
Setting [20] is: source organism: Escherichia coli O157:H7.
The mark [21] stands for this setting: source organism: Brucella abortus.
Setting [22] is: source organism: Entamoeba dispar SAW760.

Consider ELLDHLLLF, for which the Kd with HLA-B*39:01 (setting [17]), with HLA-A*02:01 [1] (setting [17]), with HLA-A*02:16 (setting [17]), in the assay with HLA-A*02:03 (setting [17]), with HLA-A*68:02 [2] (setting [17]) and with HLA-A*03:01 [3] (setting [17]) was not below 20 µM in each case. Besides, the dissociation constant (Kd) (as a rule, the concentration at which binding is half-saturated) with HLA-B*51:01 (setting [17]) is not below 20 µM; with HLA-A*02:11 (setting [17]) it was not below 20 µM; with HLA-B*46:01 [4] (setting [17]), not below 20 µM; with HLA-B*18:01 (setting [17]), not below 20 µM; in the assay with HLA-A*29:02 (setting [17]) it was 0.0161 µM; with HLA-B*15:01 [5] (setting [17]), not below 20 µM. Besides, the dissociation constant Kd with HLA-B*27:03 (setting [17]) was not below 20 µM; with HLA-A*02:12 (setting [17]) it was not below 20 µM; with HLA-B*57:01 [6] (setting [17]) it was not below 20 µM; with HLA-A*02:19 (setting [17]), 0.98 µM.
Turning to RLKHIFLIF, the Kd in the assay with HLA-A*69:01 [7] (setting [18]), with HLA-A*26:01 (setting [18]), in the assay with HLA-B*39:01 (setting [18]), with HLA-A*02:01 [1] (setting [18]), in the assay with HLA-A*02:16 (setting [18]) and with HLA-A*02:03 (setting [18]) was not below 20 µM in each case. In addition, the Kd with HLA-A*68:02 [2] (setting [18]), with HLA-A*03:01 [3] (setting [18]), with HLA-B*51:01 (setting [18]), in the assay with HLA-A*02:11 (setting [18]), in the assay with HLA-B*46:01 [4] (setting [18]) and with HLA-A*23:01 (setting [18]) was not below 20 µM in each case. The Kd with HLA-B*18:01 (setting [18]), in the assay with HLA-A*29:02 (setting [18]), with HLA-B*27:03 (setting [18]), with HLA-A*02:12 (setting [18]), with HLA-B*57:01 [6] (setting [18]) and in the assay with HLA-A*02:19 (setting [18]) was not below 20 µM each time. Besides, the equilibrium dissociation constant (Kd) in the assay with HLA-A*24:03 (setting [18]) and in the assay with HLA-B*15:17 [8] was not below 20 µM throughout.
As for NIAAPYLPF, the dissociation constant (Kd) is 2.21 µM in the assay with HLA-B*07:02 (setting [19]); not below 20 µM with HLA-B*46:01 [9] (setting [20]); 0.107 µM with HLA-B*15:01 [10] (setting [20]); 0.013 µM with HLA-B*15:02 (setting [19]); 0.01 µM in the assay with HLA-B*35:01.
In the case of GLAEKPNDY, the equilibrium dissociation constant (Kd) with HLA-A*26:02, with HLA-A*31:01, with HLA-A*69:01 [11], with HLA-B*15:09, with HLA-A*02:01 [12] and with HLA-A*01:01 was not below 20 µM in each case. In addition, the dissociation constant Kd with HLA-B*07:02 (setting [21]), with HLA-B*58:01, with HLA-B*48:01, with HLA-A*68:02 [13], with HLA-A*03:01 [14] and with HLA-A*11:01 was not below 20 µM throughout. Also, the dissociation constant (Kd) in the assay with HLA-B*08:02 was not below 20 µM; with HLA-B*46:01 [9] (setting [21]), not below 20 µM; in the assay with HLA-B*27:05 it was not below 20 µM; with HLA-B*15:01 [10] (setting [21]), 0.947 µM; in the assay with HLA-B*57:01 [15] it was not below 20 µM; with HLA-B*15:02 (setting [21]), 2 µM. Besides, the Kd with HLA-B*15:17 [16] is not below 20 µM.
Turning to KGFFRVFKK, the dissociation constant (Kd) in the assay with HLA-A*69:01 [7] (setting [22]), with HLA-A*26:01 (setting [22]), in the assay with HLA-B*39:01 (setting [22]), with HLA-A*02:01 [1] (setting [22]), in the assay with HLA-A*02:16 (setting [22]) and in the assay with HLA-A*02:03 (setting [22]) was not below 20 µM each time. The dissociation constant Kd with HLA-A*68:02 [2] (setting [22]) was not below 20 µM; in the assay with HLA-A*03:01 [3] (setting [22]), 0.0049 µM; with HLA-B*51:01 (setting [22]) it was not below 20 µM; in the assay with HLA-A*02:11 (setting [22]), not below 20 µM; in the assay with HLA-B*46:01 [4] (setting [22]), not below 20 µM; with HLA-A*23:01 (setting [22]), not below 20 µM. The Kd with HLA-B*18:01 (setting [22]) is not below 20 µM; with HLA-A*29:02 (setting [22]) it was 0.189 µM; in the assay with HLA-B*15:01 [5] (setting [22]), not below 20 µM; with HLA-A*02:12 (setting [22]), not below 20 µM; with HLA-B*57:01 [6] (setting [22]), not below 20 µM; in the assay with HLA-A*02:19 (setting [22]), not below 20 µM. In the assay with HLA-A*24:03 (setting [22]), this sequence came in with a Kd not below 20 µM.
